Laboratory results reported in article PMC9584909, “Atomic resolution protein allostery from the multi-state structure of a PDZ domain” (Nature Communications, 2022).

Target: T1, PDZ2 domain of human tyrosine phosphatase 1E (hPTP1E) (human, UniProt Q12923 1361-1456)
T1 construct: PDZ2 domain of human tyrosine phosphatase 1E (hPTP1E); Uniformly 15N- or 15N,13C-enriched for NMR; also called apo PDZ2; holo PDZ2; source: E. coli BL21 (DE3), purified (Ni-NTA, tag cleaved with HRV-3C protease, second Ni-NTA pass); not shown: polyhistidine, N-terminal, cleaved
T1 sequence: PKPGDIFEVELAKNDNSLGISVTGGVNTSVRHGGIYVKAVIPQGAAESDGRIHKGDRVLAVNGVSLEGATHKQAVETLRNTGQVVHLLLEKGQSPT
Assay: NMR titration; [1H,15N]-HSQC of uniformly 15N-enriched PDZ2, free and with the peptide in twofold excess; 298 K; 150 mM sodium chloride, 50 mM phosphate buffer pH 6.8; chemical shift perturbation
Conditions: both partners purified

binding result: binds
B1: C-terminal eight-residue peptide derived from the Ras-associated guanine nucleotide exchange factor 2 (RA-GEF2) (peptide)
peptide: Ac-ENEQVSAV-OH
notes: the eight C-terminal residues of Ras-associated / Rap guanine nucleotide exchange factor 2 (RA-GEF2); also called RA-GEF2 peptide; source: synthetic peptide, bought: BACHEM
